Measured values taken from US20070178531A1 (BIOCHECK, published 2007).

T1: Human Id2: Histidine (human, UniProt Q02363 1-134, limits assumed)
T1 construct: Fusion protein made in E. coli from vector pGW07; also called h-Id2: His; not shown: His tag
T1 sequence (looked up): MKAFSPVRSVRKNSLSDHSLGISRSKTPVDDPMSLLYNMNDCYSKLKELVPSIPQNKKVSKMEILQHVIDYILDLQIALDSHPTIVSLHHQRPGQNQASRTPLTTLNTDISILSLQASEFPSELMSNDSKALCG

T2: Mouse Id2: Histidine (mouse, UniProt P41136 1-134, limits assumed)
T2 construct: Fusion protein made in E. coli from vector pGW07; also called m-Id2: His; not shown: His tag
T2 sequence (looked up): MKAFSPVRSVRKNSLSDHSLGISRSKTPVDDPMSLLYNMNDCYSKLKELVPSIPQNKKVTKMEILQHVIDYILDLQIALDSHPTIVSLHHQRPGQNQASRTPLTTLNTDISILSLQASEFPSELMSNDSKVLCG

T3: Human Id1: Histidine (human, UniProt P41134 1-155, limits assumed)
T3 construct: Fusion protein made in E. coli from vector pGW07; also called h-Id1: his; not shown: His tag
T3 sequence (looked up): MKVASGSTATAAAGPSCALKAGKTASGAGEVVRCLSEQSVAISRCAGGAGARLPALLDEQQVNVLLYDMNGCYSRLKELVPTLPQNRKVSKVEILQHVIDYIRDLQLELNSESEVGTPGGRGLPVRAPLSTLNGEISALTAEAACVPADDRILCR

T4: Mouse Id3: Histidine (mouse, UniProt P41133 1-119)
T4 construct: Fusion protein made in E. coli from vector pGW07; also called m-Id3: His; Mouse Id3 (coated wells); not shown: His tag
T4 sequence: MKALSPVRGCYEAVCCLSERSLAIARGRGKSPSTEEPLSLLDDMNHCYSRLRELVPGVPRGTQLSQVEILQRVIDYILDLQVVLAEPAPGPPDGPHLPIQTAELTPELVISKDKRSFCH

T5: Mouse Id1: Histidine (mouse, UniProt P20067-2 1-148, limits assumed)
T5 construct: Fusion protein made in E. coli from vector pGW07; also called m-Id1-His; not shown: His tag
T5 sequence (looked up): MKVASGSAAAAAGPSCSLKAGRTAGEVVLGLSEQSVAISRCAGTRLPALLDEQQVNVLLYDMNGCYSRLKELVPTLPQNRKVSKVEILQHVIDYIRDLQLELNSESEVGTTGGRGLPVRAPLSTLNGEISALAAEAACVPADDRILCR

T6: Human Id3: Histidine (human, UniProt Q02535 1-119 at identity 1.00))
T6 construct: Fusion protein made in E. coli from vector pGW07; also called h-Id3: His; Human Id3 (coated wells); not shown: His tag
T6 chain: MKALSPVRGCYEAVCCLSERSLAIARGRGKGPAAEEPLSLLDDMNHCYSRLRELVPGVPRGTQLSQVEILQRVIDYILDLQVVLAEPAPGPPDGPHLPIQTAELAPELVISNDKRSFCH


Key:
[1] = target: T7, glutathione S-transferase (GST) (UniProt P08515 1-218 = GST); assay: ELISA, Ab 0.500 µg/ml
T7 construct: also called carrier protein GST
Procedure: (§1) The rabbit monoclonal anti-human Id3 (clone #3-3) and the rabbit monoclonal anti-mouse/human Id3 (clones #6-1, 16-1, 17-3, and 42-1) produced in Example 6 were tested reactivity against the following antigens: mouse Id1:His, human Id1:His, mouse Id2:His, human Id2:His, mouse Id3:His, human Id3:His, mouse Id4:His, human Id4:His and GST.
(§2) 1. Microtiter wells (prepared in accordance with Example 6) were coated (0.1 μg/well) with mouse Id1:His, human Id1:His, human Id2:His, human Id3:His, and 1.0 μg/well with GST. [0155] 2. Antibody Diluent: 0.25% (w/v) BSA in 0.015M KPO₄ Buffer, 0.85% (w/v) NaCl, 0.1% (w/v) NaN₃, pH=7.40 [0156] 3. Rabbit monoclonal anti-human Id3 (clone #3-3) prepared in Example 7 was diluted to […] with the antibody diluent. […] 4. Rabbit monoclonal anti-mouse/human Id3 (clones #6-1, 16-1, 17-3, 42-1) prepared in Example 7 was diluted to 0.005, 0.010, 0.025, 0.05, 0.10, 0.25, and 0.50 μg/ml with the antibody diluent. […] 5. Conjugate Diluent: 50% (v/v) which consists of an aqueous solution containing Fetal Bovine Serum in 0.05 M Tris, 1% (v/v) Proclin-300, pH 7.6. [0159] 6. Conjugate: Goat anti-rabbit IgG (H+L)-HRP conjugate. [0160] 7. TMB reagent. […] 8. Stop solution (1 N HCI). Method
(§3) 1. Dispense 100 μL of antibody diluent, diluted rabbit monoclonal human Id3, and mouse/human Id3 hybridoma supernatants into appropriate wells. […] 2. Incubate at room temperature with mechanical shaking at 750 rpm for 90 minutes. [0165] 3. Remove the incubation mixture by flicking plate content into an appropriate waste container followed by rinsing the wells 5 times with distilled water. [0166] 4. Strike the wells sharply onto absorbent paper or paper towels to remove all residual water droplets. [0167] 5. Dispense 100 μL of 1:50,000 Goat Anti-Rabbit IgG-HRP Conjugate Reagent into each well. Gently mix for 5 seconds. [0168] 6. Incubate at room temperature with mechanical shaking at 750 rpm for 90 minutes. [0169] 7. Repeat procedures 3 and 4. [0170] 8. Dispense 100 μL of TMB Reagent into each well. Gently mix for 5 seconds. [0171] 9. Incubate at room temperature with mechanical shaking at 750 rpm for 20 minutes. […] 10.

Human Id2: Histidine [2] = target: T1, Human Id2: Histidine; assay: ELISA, Ab 0.500 µg/ml
Procedure: as §1, §2, §3

Mouse Id2: Histidine [3] = target: T2, Mouse Id2: Histidine; assay: ELISA, Ab 0.500 µg/ml
Procedure: as §1, §2, §3

Human Id1: Histidine [4] = target: T3, Human Id1: Histidine; assay: ELISA, Ab 0.500 µg/ml
Procedure: as §1, §2, §3

Human Id2: Histidine [5] = target: T1, Human Id2: Histidine; assay: ELISA on coated wells, summary
Mouse Id2: Histidine [6] = target: T2, Mouse Id2: Histidine; assay: ELISA on coated wells, summary
Mouse Id3: Histidine = target: T4, Mouse Id3: Histidine; assay: ELISA on coated wells, summary
Human Id1: Histidine [7] = target: T3, Human Id1: Histidine; assay: ELISA on coated wells, summary
Mouse Id1: Histidine = target: T5, Mouse Id1: Histidine; assay: ELISA on coated wells, summary
Human Id3: Histidine = target: T6, Human Id3: Histidine; assay: ELISA on coated wells, summary
[8] = target: T7, glutathione S-transferase (GST); assay: ELISA, Ab 0.010 µg/ml

T7 sequence (P08515 whole entry): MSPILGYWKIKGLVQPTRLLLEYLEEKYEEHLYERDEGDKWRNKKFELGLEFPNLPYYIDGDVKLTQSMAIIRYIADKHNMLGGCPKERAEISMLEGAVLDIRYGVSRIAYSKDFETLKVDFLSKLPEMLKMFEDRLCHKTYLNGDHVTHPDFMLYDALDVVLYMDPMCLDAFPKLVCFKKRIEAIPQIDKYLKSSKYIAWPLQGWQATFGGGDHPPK

Row | Binder | A450 [1] [A450] | A450 (Human Id2: Histidine [2]) [A450] | A450 (Mouse Id2: Histidine [3]) [A450] | A450 (Human Id1: Histidine [4]) [A450] | Cross-reactivity (%) (Human Id2: Histidine [5]) | Cross-reactivity (%) (Mouse Id2: Histidine [6]) | Cross-reactivity (%) (Mouse Id3: Histidine) | Cross-reactivity (%) (Human Id1: Histidine [7]) | Cross-reactivity (%) (Mouse Id1: Histidine) | Cross-reactivity (%) (Human Id3: Histidine) | A450 [8] [A450]
1 | rabbit monoclonal anti-mouse/human Id3, clone #BCH-4/#16-1 (antibody, V domains shown, Rabbit IgG from a rabbit hybridoma; also called m/h Id3 MoAb 16-1) VH: QSVEESGGRLVTPGTPLTLTCTASGFSLSSYYIHWVRQAPGKALEWIGYISDGGTTYYASWAKGRFTISKTSSTTVDLKMTSLTTEDTATYFCARQGFNIWGPGTLVTVSL VL: AVLTQTPSPVSAAVGGTVTISCQSSQSVYNNNWLSWFQQKSGQPPKLLIYETSKLESGVPSRFKGSGSGTQFTLTIIDVQCDDAATYYCLGGYWTTSDNNIFGGGTEVVVK | 0.053 | 0.058 | 0.067 | 0.051 | < 1 | < 1 | 100 | < 1 | < 1 | 100 | 0.046
2 | rabbit monoclonal anti-mouse/human Id3, clone #BCH-4/#17-3 (antibody, V domains shown, Rabbit IgG from a rabbit hybridoma; also called m/h Id3 MoAb 17-3; BCH-3/#17-3) VH: QSVEESGGRLVTPGTPLTLTCTASGFSLSNVYIHWVRQAPGKGLEWIGYISDGDTARYATWAKGRFTISKTSSTTVNLKMTSLTTEDTATYFCARQGFNIWGPGTLVTVSL VL: AVLTQTPSPVSAAVGGTVSISCQSSQSVWNNNWLSWFQQKPGQPPKLLIYETSKLESGVPSRFKGSGSGTQFTLTISDVQCDDAATYYCLGGYWTTSDNNVFGGGTEVVVK | 0.053 | 0.053 | 0.069 | 0.049 | < 1 | < 1 | 100 | < 1 | < 1 | 100 | 0.046
3 | rabbit monoclonal anti-mouse/human Id3, clone #BCH-4/#6-1 (antibody, V domains shown, Rabbit IgG from a rabbit hybridoma; also called m/h Id3 MoAb 6-1) VH: QSVEESGGRLVTPGTPLTLTCTASGFSLSNVYIHWVRQAPGKGLEWIGYISDGDTARYATWAKGRFTISKTSSTTVNLKMTSLTTEDTATYFCARQGFNIWGPGTLVTVSL VL: AVLTQTPSPVSAAVGGTVSISCQSSQSVWNNNWLSWFQQKPGQPPKLLIYETSKLESGVPSRFKGSGSGTQFTLTISDVQCDDAATYYCLGGYWTTSDNNVFGGGTEVVVK | 0.054 | 0.063 | 0.066 | 0.048 | < 1 | < 1 | 100 | < 1 | < 1 | 100 | 0.046
4 | rabbit monoclonal anti-mouse/human Id3, clone #BCH-4/#42-1 (antibody, V domains shown, Rabbit IgG from a rabbit hybridoma; also called m/h Id3 MoAb 42-1) VH: QSVEESGGRLVTPGTPLTLTCTASGFSLSSYYIHWVRQAPGKALEWIGYISDGGTTYYASWAKGRFTISKTSSTTVDLKMTSLTTEDTATYFCARQGFNIWGPGTLVTVSL VL: AVLTQTPSPVSAAVGGTVTISCQSSQSVYNNNWLSWFQQKSGQPPKLLIYETSKLESGVPSRFKGSGSGTQFTLTIIDVQCDDAATYYCLGGYWSTSDNNIFGGGTEVVVK | 0.049 | 0.057 | 0.075 | 0.047 | < 1 | < 1 | 100 | < 1 | < 1 | 100 | 0.045
5 | rabbit monoclonal anti-human Id3, clone #BCH-4/#3-3 (antibody, V domains shown, Rabbit IgG from a rabbit hybridoma; also called h Id3 MoAb 3-3) VH: QSVEESGGRLVTPGTPLTLTCTVSGIDLSSYAMSWVRQAPGKGLEWIGVIFPSNNVYYASWAKGRFTISKTSTTVDLKITSPTTEDTATYFCASMGAFDSWGPGTLVTVSS VL: QVLTQTPSPVSAAVGGTVTINCQASQSIYNDNDLAWFQQKPGQPPKLLIYDASTLTSGVPSRFKGSGSGTQFTLTISDLDCDDAATYYCAARYSGNIYGFGGGTEVVVK | 0.05 | 0.047 | 0.05 | 0.048 | – | – | – | – | – | – | 0.045
